Measurements taken from publication PMC5680235, “Identification of a peptide recognizing cerebrovascular changes in mouse models of Alzheimer’s disease” (Nature Communications, 2017).
Where no end group is shown, it is not given here. FAM = 5(6)-carboxyfluorescein label

Target: T1, full-length recombinant human CTGF/CCN2 (human, UniProt P29279 27-349)
T1 construct: connective tissue growth factor (CTGF/CCN2), human, full-length recombinant; also called connective tissue growth factor; recombinant CTGF; source: bought: R&D systems (cat#9190-CC)
T1 sequence (looked up): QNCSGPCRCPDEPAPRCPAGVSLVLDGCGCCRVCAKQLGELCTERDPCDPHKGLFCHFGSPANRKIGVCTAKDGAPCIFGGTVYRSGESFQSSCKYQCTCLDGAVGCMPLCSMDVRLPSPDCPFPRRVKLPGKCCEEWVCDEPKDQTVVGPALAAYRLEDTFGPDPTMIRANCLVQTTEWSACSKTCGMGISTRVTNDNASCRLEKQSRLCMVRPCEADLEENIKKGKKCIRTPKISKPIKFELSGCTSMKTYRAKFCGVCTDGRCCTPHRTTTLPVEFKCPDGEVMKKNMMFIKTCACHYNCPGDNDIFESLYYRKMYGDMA
Assay: ELISA; plate wells coated with recombinant human CTGF; FAM-peptide in 0.05% Casein/PBST overnight at 4 °C, two peptide concentrations; alone or with excess unlabeled DAG (0.6 mM); detected with anti-FITC HRP antibody, absorbance at 450 nm
Details: both partners purified

B1: FAM-labeled DAG peptide (cyclic CDAGRKQKC) (peptide)
peptide: {FAM}-CDAGRKQKC
modifications: also: cyclic peptide, ring type not given here
notes: cyclic 9-amino acid CX7C peptide found by in vivo T7 phage display in hAPP-J20 mice; Synthesised on rink amide resin, so the C-terminus is probably an amide; the ring is probably a disulfide between the two cysteines (neither is stated for this peptide); also called FAM-DAG; source: synthetic peptide
- binding result: binds

B2: unlabeled DAG peptide (cyclic CDAGRKQKC) (peptide)
peptide: CDAGRKQKC
modifications: also: cyclic peptide, ring type not given here
notes: cyclic 9-amino acid CX7C peptide found by in vivo T7 phage display, without label; Synthesised on rink amide resin, so the C-terminus is probably an amide; also called non-labeled DAG; free DAG; source: synthetic peptide
- binding result: binds
